Test results from patent US20040265918A1.

Legend:
[1] = target: p29^GFP-labeled vesicles (vesicles carrying a GFP-tagged p29 fusion protein) [GFP: P42212]; test: competition with native myosin V in the p29^GFP vesicle / F-actin binding assay, 10 nM T4, ~2-3 pmol polypeptide
[2] = target: p29 vesicles (vesicles carrying p29, the substrate binding subunit of type II iodothyronine 5'-deiodinase, D2) (rat) (UniProt Q62876); test: in vitro actin binding assay, competition with native F-actin-bound myosin V, 10 nM T4
[3] = target: F-actin (actin cytoskeleton of rat astrocytes, Triton-insoluble fraction) (rat); test: in vitro actin binding assay, Triton fractionation, gamma counting and SDS-PAGE
[4] = target: F-actin (actin cytoskeleton of rat astrocytes, Triton-insoluble fraction) (rat); test: in vitro actin binding assay (F-lysate plus V-lysate, Triton fractionation, SDS-PAGE)
[5] = target: F-actin (actin cytoskeleton of rat astrocytes, Triton-insoluble fraction) (rat); test: in vitro actin binding assay, release with 5 mM EGTA
[6] = target: F-actin (actin cytoskeleton of rat astrocytes, Triton-insoluble fraction) (rat); test: in vitro actin binding assay, release after 0.1 mM Ca^2+, 1 mM Mg^2+, 0.1 mM ATP
[7] = target: F-actin (actin cytoskeleton of rat astrocytes, Triton-insoluble fraction) (rat); test: F-lysate plus V-lysate with p29^GFP vesicles, fluorescence of the Triton-insoluble pellet

**Q.** With “? myosin ^1513 (residues 1513-1852) (from UniProt Q99104 1513-1852)” as the substance, how does the percent decrease of T4-dependent p29 binding [1] read?
**A.** > 75%

**Q.** With “? myosin V^tail (entire myosin V tail, residues 953 to 1852) (from UniProt Q99104 953-1852)” as the substance, how does the percent decrease of p29 binding to F-actin [1] read?
**A.** > 75%

**Q.** What about the percent of the T4-dependent binding of p29 vesicles to F-actin blocked (5 µl) [2] of the same substance?
**A.** 50%

**Q.** What about the percent of the p29 binding blocked (10 µl) [2] of the same substance?
**A.** > 95%

**Q.** Which percent decrease of T4-dependent p29 binding [1] does the source give for “? myosin ^1830 (residues 1830-1852) (from UniProt Q99104 1830-1852) (peptide)” here?
**A.** > 75%

**Q.** How did the percent decrease of T4-dependent p29 binding [1] turn out when “? myosin ^1767 (residues 1767-1852) (from UniProt Q99104 1767-1852)” was run?
**A.** > 75%

**Q.** “p29 vesicles (vesicles carrying p29, the substrate binding subunit of type II iodothyronine 5'-deiodinase, D2) (from UniProt Q62876 1-234)” was tested. Which percent of total p29 vesicles bound to F-actin (after 10 nM T4) [3] did it give?
**A.** 80%

**Q.** What about the percent of p29 remaining in the non-actin bound, Triton-soluble fraction (10 nM T3) [4] of the same substance?
**A.** > 90%

**Q.** What about the percent of radiolabeled p29 bound to the Triton insoluble, F-actin fraction (10 nM T4) [4] of the same substance?
**A.** > 70%

**Q.** What about the percent of the Ca^2+-stimulated release of p29 from F-actin blocked by EGTA [5] of the same substance?
**A.** > 50%

**Q.** What about the percent of p29 vesicles released from F-actin by Ca^2+, Mg^2+ and ATP [6] of the same substance?
**A.** 70%

**Q.** “p29^GFP-labeled vesicles (vesicles carrying a GFP-tagged p29 fusion protein) (from UniProt P42212 1-238)” was tested. Which percent increase in p29^GFP vesicle binding to F-actin at 100 nM T3 [7] did it give?
**A.** 10 to 20%
